Assay results reported in the DeepSol protein solubility set.

assay: soluble on expression in E. coli; label from the status in PepcDB or PDB records

Row | Sequence | soluble on expression in E. coli
1 | MGSDKIHHHHHHMEEYIRRILTLGRKRLEKFALKGGKPLPERPLIVKLMEEIRGFLGSGENRVILLYGLRGVGKTTMLAQLYLKLIGEVSGERILYASVDEIKMLGYRLKDVFESYEHIIGERLEELREPTIFLLDEVHYDEEWDLALKVAYDRARNLMIVATGSSAIELKLSTDLARRAKRFHITPLTFTEYLLLKGIRVNEEVKKVLKRLLLAGEVEGIEEEIRKTFLTFDPIEVERYLLYGSLPLALSSREPLEETYSIVERIIRWDLAKMGFSQEVLEKAFLLMLMLASGEALNYDRLTSRLGISRPVLAKLLSAFENLEVIFPVRAYGSLGKAIRKTPKYKFLAPVIRTSILNHFGLLEVNEKILGNLLEDVVALYLYIIARELSGSVTYDAEKGGADFILTTPIGRIVLEVGWGKKGKEQVKRTMKKIGAERGIIIHGGDFREKNGVIWLPKEWFLLML | not soluble
2 | MGSDKIHHHHHHMEFPGVKALDDVHFSVKRGEIHALVGANGAGKSTLMKVLAGAYASYEGTILFDGVPLAIDSPNAAKRAGIEIVYQEVDTALVDYLTVAENICLDMLASGQLKGVIRRRRYEEIAERALQKLKASIDVRQRVSELRLAEKQLVLIARALVQESRFLILDEPTAPLSGRETEQLFRIIRELAEKEHLGVIFISHRLQELFEICESISVMRDGKMVSRQLLAGQTKETVVEQMLGRRLQKSSREARPAGAPSLELDRITVAGQLDEISLTVRAGEVIGIAGLVGAGKTELCKTIFGSIPVTSGLMRLAGETRRIRSAYDAVRLGIGLVPEERRKEGILVADPIEQNMTAASLKQFVNRFGFVEKKKERAAANRIVQQLSIKVSDTRQRAAELSGGNQQKVAIGKWLLADASVLVLDEPTKGVDVGAKAEIFQVIDQLAAEQKAVIYASSELDELLAVTDRIYVMYDGQIVFEATTSETTEEQLLWYATGGQQHE | not soluble
3 | MGSDKIHHHHHHMEFSNAERDVFLIKIEKMIDRGALMSRYSRASDPDIRSVYEKEFKTGAKSGEEFYRRIFLEYGDESIAELTTAQMGIQNVSNVASKIIEEIRIGLSYLEKSTRYVRYDKKVDGRYLYISPERIGISGDDAKDYVQLCDNLFEFYSKALPQVEDYLRHKFPQDKLVFQNAGGKTLTEMDQNEKKIAERSYINAVRSRALDDVRYILPASTLTNIGISGNGRALIHLIQKLMEYEIPETTKLAKDIYDELKPELPQLIDDALSGHGLEIINFKKNLMGLFPYDLTGNFERIRLLSYGEEDKELRKVASLIEYPFHGDAASLYSRSSESYVKYMKELIESIRSLRANRRMKPGRAFESVNYVFELNLNYGSFRDLQRHRFLGIIRKPLTAAYGYDTPPVISAIDELKTQYDELMANSSSFYQRLREKYGPWISQYVVPFAFKYPITFSTNLSEVTYFVELRSTAQAHFDLRDIAVSMYREVSKVHPTLSRIIKFVDTADYPLGRLSAEFRKESKKAGI | not soluble
4 | MGSDKIHHHHHHMEHLLEVNNLSVSFKVEEGEVQAVRNVSFNLKKGETLAIVGESGCGKSVLCKSLMRILPYNGYIKNGEVLLKSSDLVKKSEKEMEDIRGKNISMIFQDPMTSLNPTISIGKQIAEAVIIHQGISKSEAKKRAIELIELVGIDNPEKRFKQFPHHFSGGMRQRIVIAIALACNPDVLIADEPTTALDVTIQAQIIDLIKDLQHKIGLSIIFITHDLGVVATIADRIAVMYAGKIVEIGTVEDIFYDPRHPYTWGLLGSLPTLDSQDDYLYNIPGMPPNLLNPPKGDAFAIRNKNALKIDYEKEPPMFKINDTHSAATWLLHPDAPEVDVPVRVNCGRVISNE | not soluble
5 | MGSDKIHHHHHHMEIKETYDFSSIVDLWNKNIGTVYPMNLELFKQNYINDRQRKKIMGAFNGEILIGFVIYKQWTYKSGSLKPNHKIGYINSIIVDINFRHQGIGTKLLDAAEEELINSGVKILRCGSDTYHFFPGIPLECLPSEEFFLVRGYKMQDYFYDLIGDVSKVDFKKPSIKDGFKVNVMKPEDRKGLFEFLEKSFSGRWLEEFIEFFQVGMKERDIVLIKYKTSVIGFSHIYDNKSSFIGPPIYWKALLGHNYGGLGPIGIDKTYRKQGLGRLLLYESLQILKKREVKKMVIDWTEKDIINFYGRFNFMPWKAYRKATKEVKDGKG | not soluble
6 | MGSDKIHHHHHHMEILSLGEKIKARRKELNMTLKDLAGDRITPGQISLVESGKSNPSMDLLEYLAGALNTSVEYLMESEETQAEKICVYYENTAEAYMLNDELMEAEQYLEKAMYYAENYKISYRKARTLYLYGCINMNKNELGVAQQFFLSSNVLFIKLNHYEDIINTFINLGKITLNLKAYNSSCSYFEQAERVSRDNDIGNDFLIGEIYYYMSLVYFKMNNSNKTIKYCLMAKEKFAELENKKEYARTLLILSKEYSKSGDVDNAIKYSKKALKAFKENDNMFAVADIENELGKLFYEFENIEESFIHLNKAKEIRKKTKGHEFIETLCNICENYIKLKDTENSQKVLNEIKENIDGNNVFDILKYYMLKYRISILNRSLKEAENILLRALQYAENMELEKEAAEFSVIIGKYYIDNGDDVEAAKYLNSGIEKFKKIGVLKDL | not soluble
7 | MGSDKIHHHHHHMEKEIKNIIEMRHIVKDFNGFKANNDINLTLRKGEILALLGENGAGKSTLMSILSGLLEPTSGEIYVRGEKVNISGPNVATSLGIGMVHQHFMLAQAFTVLENIILGHETTKGLALDFKTAREKILALSKQYGLAIDPDAKISDITVAQQQRVEILKVLYRGADILIFDEPTAVLTPQEITEFIKIMKNLAKEGKSIILITHKLKEIKESADRVTVIRAGKSIQTVSVADANDEQLAEMMVGHHVNFKLDKAPLNLGKNILEVKDLHVNEDRGTDAVKGLSFNIRGGEILGLAGIDGNGQDELVEAITGLRHVEGGQVVINGQDLTNKPVRQITEAGVGHIPADRQKYGLILQLPLSENIASQTYYKEPYSKHGIMNEQTIREHARELIKKFDVRTTSEQLPASDLSGGNQQKAIIARELDRDADLIIAFQPTRGLDVGAIEYIHSQLLKQRDAGKAVLLVSYELDEILQLSDRIVVLHDGAESGEVKPDQTSETELGLLMTGKNTKKEAAAND | not soluble
8 | MGSDKIHHHHHHMEKKFNLENYLSYGVQNIVKGIIKSTLSNPKESLFMAKYSIASKNAIKLRAEADKIGEHVPPFLIASITSKCNLHCKGCYARHVNSCTDEKTVNQLTDEDWRRVFYEAKDIGVGFILLLGGEPLMRPNVIKIAGEIEDILFPIFTNGTMIDEKYIKLFQKYRNLIPIFSIEGNESNTDKRRGTGIYSEIIKKMNEAYENKIIYGASITVTKENIEEVTSEKFLDKLYSRGCKSVIYVEYVPVSEKEKKIALEGKEREFLKDKLVELRYKYEDILFISFPGDEKSSGGCLAAGRGFFHINFNGGVEPCPFSPYSDTNLKDLSLKEAMNSPLFRKLRKDNVLMEEHSGGCVLFEKEDIVQSLLQK | not soluble
9 | MGSDKIHHHHHHMEKTLVIEHDGEKAVVWETPQIFSENDYDYEVLEKALENTGGPLKEWRKKKYQEYKEWGFPRWKRCNLDGMSLPELSFKRIDLDVDISLLEKLDFEGAHRKFVLLGDTFFTDFRVYGDGKHMMRFDGDGIENVLVVVEKEAEIYKLSSTDRFRNTVMRILVKKNASLKFFNLDFFGNFSFDNVFIVLEEGARLVLRDFKAFGYRKTGHILVKLNKSSKADMKSFFYQNGSGITDLLYLMRFEGEDAEGKLKGNGVVDGAGKIVFRGILDVKRGSKNIVAEETEHTLVLSPDARMDAIPSLWVDENDVTASHSASSSSLDEDELFYLMTRGVDEIESKKLIVRGVFNELLDELDESVKGEVENVVNRIV | not soluble
10 | MGSDKIHHHHHHMELHIRLEGRKGLADQLYQQLRDGIDSGHLAAGSQLPPTRLLAEQLGVSRKTVAEAYSRLTYDNLLSGVVGRGTFVTPRHPLRSNESATLPLAGAASLERWQQRATVLSQRQLQAPSRYDFVGGASSKAQFPFDQWRSCLNYALRRSQRHPERQFPAQGLPELREAIAHHIAYSRGVHCSAADLLVCNGAQQALDLIARVLVEPGCQVAMEDPGYPPARQLFLALGARLQSVPVDDEGLCVEQIADGTRLIYVTPSHQFPLGMPMSEPRRHALLARAAELGALIIEDDYDCEFRYHGPASDALQRLDRHGLVAYVGTFSKTLLPELRLGYAVLPPAVLQAACVAKHLSDWHSPTLLQWALARFLGEGHLNKHIRRCHEVYSARRERILARLGGDLAPWFSAIPASAGFHLSALATPGVDVELLANLARKVEVGLYSLAPFFSEAPVRPGLLMGFGAIELLDIDPALDRVRDTLQRLS | not soluble
